One block for each binder: values may come before it.
Tests used:
[1] = molecular target: the molecule itself; test: crystal structure
[2] = molecular target: T1, H. sapiens JunD bZIP domain (residues Q266-V332) (human, UniProt P17535 266-332); test: crystal structure
T1 sequence: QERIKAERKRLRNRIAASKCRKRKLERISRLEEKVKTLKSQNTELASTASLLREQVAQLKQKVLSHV

[3] = molecular target: the molecule itself; test: fluorescence polarisation
[4] = molecular target: T2, FosB bZIP domain;JunD bZIP domain (Homo sapiens (cloned from identical Mus …, UniProt P53539;P17535 153-219;266-332, |)); test: fluorescence polarization
T2 sequence 1: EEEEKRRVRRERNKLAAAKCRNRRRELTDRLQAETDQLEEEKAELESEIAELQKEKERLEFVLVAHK
T2 sequence 2: T1 sequence

binding result [2]: binds
B1: Homo sapiens FosB bZIP domain (residues E153-K219) (domain or fragment)
chain: T2 sequence 1
binding result [1]: binds

B2: oxidized form of FosB/JunD bZIP heterodimer (FJ^oxi) (complex)
chain 1: T2 sequence 1
chain 2: T1 sequence
binding result [1]: binds

B3: reduced FosB/JunD bZIP heterodimer (FJ^red) (complex)
chain 1: T2 sequence 1
chain 2: T1 sequence
binding result [3]: binds

B4: TAMRA AP-1 19-mer (cyclin-dependent kinase 5 promoter) (dsDNA)
DNA 1: CGTCGGTGACTCAAAACAC
DNA 2: GTGTTTTGAGTCACCGACG
binding result [4]: binds
